# Experimental data reported in US20220242945A1 (SORRISO PHARMACEUTICALS, published 2022).
# Substitutions are numbered along the chain they refer to. In names and notes the source's numbering stands.
# T1: THP-1 derived nhIL-23 (human, UniProt Q9NPF7 20-189; P29460 23-328)
# T1 sequence (looked up) 1: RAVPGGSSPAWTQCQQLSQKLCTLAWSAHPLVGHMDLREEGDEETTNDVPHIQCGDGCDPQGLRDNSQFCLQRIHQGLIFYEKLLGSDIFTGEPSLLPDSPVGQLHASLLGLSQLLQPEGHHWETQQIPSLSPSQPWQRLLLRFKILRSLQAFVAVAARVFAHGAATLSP
# T1 sequence (looked up) 2: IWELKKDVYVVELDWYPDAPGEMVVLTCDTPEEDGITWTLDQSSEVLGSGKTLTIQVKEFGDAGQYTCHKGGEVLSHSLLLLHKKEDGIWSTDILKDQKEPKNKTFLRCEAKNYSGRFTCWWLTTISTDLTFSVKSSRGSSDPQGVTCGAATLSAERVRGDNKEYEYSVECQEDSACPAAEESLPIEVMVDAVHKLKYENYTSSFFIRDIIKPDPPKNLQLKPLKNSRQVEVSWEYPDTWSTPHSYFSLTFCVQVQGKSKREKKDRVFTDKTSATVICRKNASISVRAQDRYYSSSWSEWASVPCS
# T2: recombinant human IL-23 (human, UniProt Q9NPF7 20-189; P29460 23-328)
# T2 construct: Heterodimer of p19 and p40; also called hIL-23; interleukin-23; not shown: single C-terminal 6xHis tag
# T2 sequence 1: T1 sequence (looked up) 1
# T2 sequence 2: T1 sequence (looked up) 2
# T3: Human IL-12 (human, UniProt P29459 23-219; P29460 23-328)
# T3 sequence (looked up) 1: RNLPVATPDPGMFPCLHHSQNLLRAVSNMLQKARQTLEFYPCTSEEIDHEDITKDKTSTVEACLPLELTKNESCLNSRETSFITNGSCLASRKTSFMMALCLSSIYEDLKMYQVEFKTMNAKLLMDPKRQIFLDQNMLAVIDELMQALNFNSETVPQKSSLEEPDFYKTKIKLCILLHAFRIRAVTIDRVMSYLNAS
# T3 sequence (looked up) 2: T1 sequence (looked up) 2
# T4: rhesus monkey IL-12 (rhesus monkey, UniProt P48091 23-219; P48095 23-328)
# T4 sequence (looked up) 1: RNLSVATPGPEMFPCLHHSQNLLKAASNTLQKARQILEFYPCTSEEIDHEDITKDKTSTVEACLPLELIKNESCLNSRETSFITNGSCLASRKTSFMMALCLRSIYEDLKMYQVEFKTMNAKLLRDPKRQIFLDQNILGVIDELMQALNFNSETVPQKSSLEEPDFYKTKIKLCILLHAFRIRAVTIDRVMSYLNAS
# T4 sequence (looked up) 2: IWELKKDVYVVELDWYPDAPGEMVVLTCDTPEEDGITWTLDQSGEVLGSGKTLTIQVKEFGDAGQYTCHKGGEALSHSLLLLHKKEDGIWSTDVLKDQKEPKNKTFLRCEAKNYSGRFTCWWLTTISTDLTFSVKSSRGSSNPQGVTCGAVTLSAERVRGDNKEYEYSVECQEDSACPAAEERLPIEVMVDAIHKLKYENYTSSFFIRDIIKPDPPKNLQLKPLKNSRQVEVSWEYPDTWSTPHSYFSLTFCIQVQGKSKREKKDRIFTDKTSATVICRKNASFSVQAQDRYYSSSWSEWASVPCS
# B1: ID-L253T (VHH)
# VHH: DVQLVESGGGQVQPGGSLSLSCESSVSIWSFKVMGWFRQVPGKQRELVATITTGGSPDYSDSVKGRFTISRDYDKRTLYLQMNSLKPEDTAVYYCAGRLWAHITSSGHDVWGQGTQVTVSS
# notes: Optimised variant of 12G1
# B2: ID-L242T (VHH)
# VHH: B1 VHH with D1E, S19R, S60R, V92R
# notes: Relative to ID-L253T: D1E, S19R, S60R, V92R
# B3: ID-L244T (VHH)
# VHH: B1 VHH with D1E, S19R
# notes: Relative to ID-L253T: D1E, S19R
# B4: ID-L238T (VHH)
# VHH: B1 VHH with D1E, S19R, V40A, V92R
# notes: Relative to ID-L253T: D1E, S19R, V40A, V92R
# B5: ID-L251T (VHH)
# VHH: B1 VHH with D1E, S19R, Q44E, L47F, D58H
# notes: Relative to ID-L253T: D1E, S19R, Q44E, L47F, D58H
# B6: ID-L252T (VHH)
# VHH: B1 VHH with D1E, V40A, Q44E, R45L, I69L, L78V
# notes: Relative to ID-L253T: D1E, V40A, Q44E, R45L, I69L, L78V
# B7: ID-L210T (VHH)
# VHH: B1 VHH with D1E, S19R, V92R
# notes: Relative to ID-L253T: D1E, S19R, V92R
# B8: ID-L248T (VHH)
# VHH: B1 VHH with D1E, K43H, R45L
# notes: Relative to ID-L253T: D1E, K43H, R45L
# B9: ID-L241T (VHH)
# VHH: B1 VHH with D1E, S19R, D58H, V92R
# notes: Relative to ID-L253T: D1E, S19R, D58H, V92R
# B10: ID-L239T (VHH)
# VHH: B1 VHH with D1E, S19R, R45L, V92R
# notes: Relative to ID-L253T: D1E, S19R, R45L, V92R
# B11: ID-L249T (VHH)
# VHH: B1 VHH with D1E, V40A, R45L, D58H
# notes: Relative to ID-L253T: D1E, V40A, R45L, D58H
# B12: ID-L237T (VHH)
# VHH: B1 VHH with D1E, V92R
# notes: Relative to ID-L253T: D1E, V92R
# B13: ID-L247T (VHH)
# VHH: B1 VHH with D1E, V40A, R45L
# notes: Relative to ID-L253T: D1E, V40A, R45L
# B14: ID-L243T (VHH)
# VHH: B1 VHH with D1E, S19R, P87S, V92R
# notes: Relative to ID-L253T: D1E, S19R, P87S, V92R
# B15: ID-L245T (VHH)
# VHH: B1 VHH with D1E
# notes: Relative to ID-L253T: D1E
# B16: ID-L250T (VHH)
# VHH: B1 VHH with D1E, V40A, R45L, L47F, D58H
# notes: Relative to ID-L253T: D1E, V40A, R45L, L47F, D58H
# B17: ID-L246T (VHH)
# VHH: B1 VHH with D1E, V40A, I69L, L78V
# notes: Relative to ID-L253T: D1E, V40A, I69L, L78V
# B18: 10E2 (VHH)
# VHH: EVQLVESGGGLAQAGGSLRLSCAPSGRAFSGSAMGWFRQVPGKEREFVGVIIWTGGYTYYADSVKGRFTISRDSAKNTVYLQMDSLKPEDTAVYYCAARTPNSSWFPTTLYEYDYWGQGTQVTVSS
# notes: Purified primary clone made in E. coli; not shown: C-terminal FLAG and 6xHis tags from vector pMEK222
# B19: 10G10 (VHH)
# VHH: EVQLVESGGGLVQAGTSLRLSCAASGRTFSNYIMGWFRQAPGKEREFVAIITANGVATDYRDSVKGRFTISRDNARNTGYLEMNSLKPEDTAVYFCALRTRSGSLFDPGTFDYWGQGTQVTVSS
# notes: as for B18
# B20: 12G1 (VHH)
# VHH: EVQLVESGGGLVQPGGSLRLSCAASVSIWSFKVMGWYRQVPGKQRELVATITTGGSPDYADSVKGRFTMSRDYDKRTVFLEMDSVKPEDAAVYYCNGRLWAHLTSSGHDVWGQGTRVTVSS
# notes: Purified primary clone made in E. coli; also called Family L ICVD 12G1; not shown: C-terminal FLAG and 6xHis tags from vector pMEK222
# B21: 1E2 (VHH)
# VHH: B20 VHH with R116Q
# notes: Purified primary clone made in E. coli; also called Family L ICVD 1E2; not shown: C-terminal FLAG and 6xHis tags from vector pMEK222
# B22: FA1K (bispecific antibody)
# chain: DVQLVESGGGLVQPGGSLKLSCAASGFDFSSHWMYWVRQAPGKELEWLSEINTNGLITHYGDSVKGRFTVSRNNAANKMYLELTRLEPEDTALYYCARNQHGLNKGQGTQVTVSSGGGGSGGGGSKGGGGSGGGGSEVQLVESGGGQVQPGGSLSLSCESSVSIWSFKVMGWFRQVPGKQRELVATITTGGSPDYSDSVKGRFTISRDYDKRTLYLQMNSLKPEDTAVYYCAGRLWAHITSSGHDVWGQGTQVTVSS
# notes: Before trypsin treatment; also called heterobihead anti-IL-23/anti-TNF-alpha construct; ID-38F-(G4S)2-K-(G4S)2-ID-L253T
# B23: ID-38F (VHH)
# VHH: DVQLVESGGGLVQPGGSLKLSCAASGFDFSSHWMYWVRQAPGKELEWLSEINTNGLITHYGDSVKGRFTVSRNNAANKMYLELTRLEPEDTALYYCARNQHGLNKGQGTQVTVSS
# notes: also called anti-TNF-alpha ICVD ID-38F
# Biological target: T1, THP-1 derived nhIL-23
# Assay: cell-based or functional assay
row,"Mouse splenocyte (EC50; mIL-17 secretion, Evaluation Method C) [nM]",Binder
1,13.5,B1
2,3.01,B2
3,6.62,B3
4,5.54,B4
5,5.74,B5
6,5.2,B6
7,5.63,B7
8,4.47,B8
9,3.51,B9
10,3.84,B10
11,4.27,B11
12,6.35,B12
13,4.52,B13
14,5,B14

# Biological target: T2, recombinant human IL-23
# Assay: IL-23-IL-23R neutralisation ELISA
# Protocol: (§1) Maxisorp 96-well plates were coated overnight with 50 μl/well 0.3 μg/ml IL-23R-Fc then blocked with 4% milk, 1% BSA.
# (§2) The Family L ICVD 12G1 underwent sequence modification to produce multiple variant ICVDs. These variant ICVDs were tested in the potency and protease stability assays detailed above.
row,EC50 [nM],Binder
1,0.23,B1
2,0.25,B15
3,6.95,B16
4,0.22,B2
5,0.24,B3
6,0.2,B4
7,1.99,B5
8,0.26,B6
9,0.17,B8
10,0.31,B9
11,0.26,B10
12,0.74,B11
13,0.24,B12
14,2.15,B17
15,0.31,B13
16,0.27,B14

# Biological target: T3, Human IL-12
# Assay: binding or inhibition ELISA (which of the two is not said)
row,binding result,Binder
1,no binding,B1

# Biological target: T4, rhesus monkey IL-12
# Assay: as above
row,binding result,Binder
1,no binding,B1

# Biological target: IL-6 (Homo sapiens (Human), UniProt P05231 30-212)
# Assay: as above
# Chain of IL-6 (P05231 30-212 limits assumed): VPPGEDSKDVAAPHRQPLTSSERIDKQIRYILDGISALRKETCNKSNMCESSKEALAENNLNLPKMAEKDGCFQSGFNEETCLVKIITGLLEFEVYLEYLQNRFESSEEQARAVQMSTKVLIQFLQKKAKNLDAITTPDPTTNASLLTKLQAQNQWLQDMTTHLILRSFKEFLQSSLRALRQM
row,binding result,Binder
1,no binding,B1

# Biological target: T2, recombinant human IL-23
# Assay: IL-23-IL-23R neutralisation ELISA; average of 5 independent experiments
# Protocol: as §1, §2
row,EC50 [nM],Binder
1,0.32,B7

# Biological target: T2, recombinant human IL-23
# Assay: IL-23-IL-23R inhibition ELISA (Evaluation Method A), side by side with brazikumab
# Protocol: as §1
row,EC50 [nM],Binder
1,0.202,B1

# Biological target: T2, recombinant human IL-23
# Assay: IL-23-IL-23R neutralisation ELISA; one experiment, left out of the average by the filing as an outlier
row,EC50 [nM],Binder
1,1.1,B7

# Biological target: T2, recombinant human IL-23
# Assay: SPR (Biacore), recombinant human IL-23 captured by an anti-p40 mAb on the chip, ICVD flowed over; average KD
row,Kd [nM],Binder
1,0.032,B1

# Biological target: T2, recombinant human IL-23
# Assay: IL-23-IL-23R neutralisation ELISA (Evaluation Method A): ICVD titrated with recombinant human IL-23, binding to coated IL-23R-Fc
# Protocol: as §1
row,EC50 [nM],Binder
1,1.45,B18
2,1.47,B19
3,0.387,B20
4,0.546,B21

# Biological target: T2, recombinant human IL-23
# Assay: IL-23-IL-23R neutralisation ELISA (sheet title 'IL-23 IL23R ELISA'); construct blocks binding of IL-23 to IL-23R; A450
row,binding result,Binder
1,binds,B22

# Biological target: T5, human TNFα (human, UniProt P01375 77-233)
# T5 construct: also called TNF-alpha
# Assay: competition ELISA on plate-coated human TNFα; competitor 2 nM biotinylated adalimumab, detected with ExtrAvidin-HRP, A450
# Protocol: ELISA plates were coated with 100 ng/mL human TNFα in 250 μg/mL bovine serum albumin (BSA) in phosphate buffered saline (1×PBS) and blocked with 1% BSA in 1× PBS. […] Otherwise 1% BSA was used as an assay diluent.
# T5 sequence (P01375 77-233 limits assumed): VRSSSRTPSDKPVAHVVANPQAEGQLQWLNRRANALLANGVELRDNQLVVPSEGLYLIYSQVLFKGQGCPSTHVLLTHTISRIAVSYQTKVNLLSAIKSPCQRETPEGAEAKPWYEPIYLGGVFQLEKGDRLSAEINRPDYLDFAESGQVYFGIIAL
row,binding result,Binder
1,binds,B22
2,binds,B23
